Source: paper PMC2814163 (Biochemistry, 2010)
Numbering of substitutions follows the chain as printed. Where two headings read alike, the source gives them in different places.

B1: Dom1-3His (extracytoplasmic domains 1-3 of the bovine CI-MPR, residues 1-432, C-terminal His6) (domain or fragment, UniProt P08169 45-476, looked up)
chain: AAGTQGAEFPELCSYTWEAVDTKNNMLYKINICGNMGVAQCGPSSAVCMHDLKTDSFHSVGDSLLKTASRSLLEFNTTVNCKQQNHKIQSSITFLCGKTLGTPEFVTATDCVHYFEWRTTAACKKNIFKANKEVPCYAFDRELKKHDLNPLIKTSGAYLVDDSDPDTSLFINVCRDIEVLRASSPQVRVCPTGAAACLVRGDRAFDVGRPQEGLKLVSNDRLVLSYVKEGAGQPDFCDGHSPAVTITFVCPSERREGTIPKLTAKSNCRFEIEWVTEYACHRDYLESRSCSLSSAQHDVAVDLQPLSRVEASDSLFYTSEADEYTYYLSICGGSQAPICNKKDAAVCQVKKADSTQVKVAGRPQNLTLRYSDGDLTLIYFGGEECSSGFQRMSVINFECNQTAGNNGRGAPVFTGEVDCTYFFTWDTKYACV
B2: bovine prothrombin (natural protein)
chain: not shown
modifications: plasma-purified zymogen; gamma-carboxyglutamate in Gla domain, N-glycosylated, disulfides (by convention, not given)
B3: Dom1-3HisK23A (domain or fragment, bovine, UniProt P08169 45-476, looked up)
chain: B1 chain with K23A
B4: human β-glucuronidase (enzyme, UniProt P08236 23-651, looked up)
chain: LQGGMLYPQESPSRECKELDGLWSFRADFSDNRRRGFEEQWYRRPLWESGPTVDMPVPSSFNDISQDWRLRHFVGWVWYEREVILPERWTQDLRTRVVLRIGSAHSYAIVWVNGVDTLEHEGGYLPFEADISNLVQVGPLPSRLRITIAINNTLTPTTLPPGTIQYLTDTSKYPKGYFVQNTYFDFFNYAGLQRSVLLYTTPTTYIDDITVTTSVEQDSGLVNYQISVKGSNLFKLEVRLLDAENKVVANGTGTQGQLKVPGVSLWWPYLMHERPAYLYSLEVQLTAQTSLGPVSDFYTLPVGIRTVAVTKSQFLINGKPFYFHGVNKHEDADIRGKGFDWPLLVKDFNLLRWLGANAFRTSHYPYAEEVMQMCDRYGIVVIDECPGVGLALPQFFNNVSLHHHMQVMEEVVRRDKNHPAVVMWSVANEPASHLESAGYYLKMVIAHTKSLDPSRPVTFVSNSNYAADKGAPYVDVICLNSYYSWYHDYGHLELIQLQLATQFENWYKKYQKPIIQSEYGAETIAGFHQDPPLMFTEEYQKSLLEQYHLGLDQKRRKYVVGELIWNFADFMTEQSPTRVLGNKKGIFTRQRQPKSAAFLLRERYWKIANETRYPHSVAKSQCLENSLFT
modifications: mannose 6-phosphate on its glycans (Man-6-P-containing lysosomal enzyme; nonphosphorylated enzyme removed)
B5: Dom1-3HisK53A (domain or fragment, bovine, UniProt P08169 45-476, looked up)
chain: B1 chain with K53A
B6: Dom1-3HisK82A (domain or fragment, bovine, UniProt P08169 45-476, looked up)
chain: B1 chain with K82A
B7: Dom1-3HisK98A (domain or fragment, bovine, UniProt P08169 45-476, looked up)
chain: B1 chain with K98A
B8: Dom1-3HisR118A (domain or fragment, bovine, UniProt P08169 45-476, looked up)
chain: B1 chain with R118A
B9: Dom1-3HisK125A (domain or fragment, bovine, UniProt P08169 45-476, looked up)
chain: B1 chain with K125A
B10: Dom1-3HisK132A (domain or fragment, bovine, UniProt P08169 45-476, looked up)
chain: B1 chain with K132A
B11: Dom1-3HisK215A (domain or fragment, bovine, UniProt P08169 45-476, looked up)
chain: B1 chain with K215A

How the values were obtained:
Experiment in all cases: SPR
human β-glucuronidase [1] = molecular target: B4
human prothrombin = human prothrombin (human, plasma-purified zymogen; gamma-carboxyglutamate in Gla domain, N-glycosylated, disulfides (by convention, not given))
[2] = molecular target: B1
human β-glucuronidase [3] = molecular target: B4; remark: listed apart in the source
[4] = molecular target: soluble form of the cation-independent mannose 6-phosphate receptor isolated from fetal bovine serum (bovine, UniProt P08169 45-2313)

## B1
Human β-glucuronidase [1]
  Kd: 10 ± 2 nM
Human prothrombin
  Kd: > 2500 nM

## B2
[2]
  Kd: > 2500 nM

## B3
Human β-glucuronidase [3]
  Kd: 14 ± 1 nM

## B4
[4]
  Kd: 22 ± 3 nM

## B5
Human β-glucuronidase [3]
  Kd: 17 ± 2 nM

## B6
Human β-glucuronidase [3]
  Kd: 17 ± 2 nM

## B7
Human β-glucuronidase [3]
  Kd: 17 ± 1 nM

## B8
Human β-glucuronidase [3]
  Kd: 12 ± 1 nM

## B9
Human β-glucuronidase [3]
  Kd: 26 ± 2 nM

## B10
Human β-glucuronidase [3]
  Kd: 35 ± 4 nM

## B11
Human β-glucuronidase [3]
  Kd: 18 ± 2 nM
